For experiment [1], the target named is T1, Recombinant Mouse Fc gamma RI/CD64 Protein (mouse, UniProt P26151 25-297).
T1 construct: Bought recombinant protein; also called mu FcγRI (CD64); murine CD64
T1 sequence (looked up): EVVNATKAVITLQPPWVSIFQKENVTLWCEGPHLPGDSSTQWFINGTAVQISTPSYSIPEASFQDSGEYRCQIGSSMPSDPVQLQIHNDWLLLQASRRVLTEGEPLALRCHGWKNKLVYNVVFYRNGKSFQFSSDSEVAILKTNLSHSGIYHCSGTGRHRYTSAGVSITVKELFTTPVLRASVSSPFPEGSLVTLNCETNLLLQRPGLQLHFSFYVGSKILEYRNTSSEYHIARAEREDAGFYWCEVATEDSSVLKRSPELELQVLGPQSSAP
The experiment in a line: ELISA, antibody coated at 2.5 ug/ml, soluble Fc gamma receptor titrated, HRP detection; mean EC50. The procedure: (§1) To analyze Fc Receptor gamma binding test molecules were diluted to 2.5 ug/ml in PBS and plates were coated overnight at 4° C. The next day the assay plates were washed four times with 100 ul of wash buffer: PBS+0.02% Tween 20 and blocked with PBS+1% BSA, for one hour at 37° C., with shaking at 600 RPM. The blocked plates were then washed four times with 100 ul wash buffer. Diluted FcRgamma (Reagents listed, below) was freshly diluted in wash buffer. Plates were then incubated with 25 ul of diluted Fc for two hours with shaking at 600 RPMs, then washed with 100 ul wash buffer, four times. The wells were then incubated with 25 ul of either 1:500 diluted streptavidin-Horseradish peroxidase (HRP) for detection of human FcgR or 1:500 diluted Anti-HIS tag antibody-HRP in wash buffer. The HPR detection molecules were incubated in the wells at room temperature for one hour with shaking at 600 RPMs. Plate wells were washed with 100 ul of wash buffer, four times. Plates were detected using the chromogenic HRP substrate 3,3′,5,5;-tetramethylbenzidine (TMB). Samples were read using a spectrophotometer plate reader with OD set to 450 nm. Reagents: Recombinant Mouse Fc gamma RI/CD64 Protein, CF R&D Systems #2074-FC-050; Recombinant Human Fc gamma RI/CD64 Protein, CF R&D Systems #1257-FC-050; Recombinant Mouse Fc gamma RIII/CD16 Protein, CF R&D Systems #1960-FC-050; Recombinant Human Fc gamma RIIA/CD32a (H167) Protein, CF R&D Systems #9595-CD-050; Recombinant Mouse Fc gamma R4/CD16-2 Protein, CF R&D Systems #1974-CD-050; Recombinant Human Fc gamma RIIIA/CD16a Protein, CF R&D Systems #4325-FC-050; Recombinant Human Fc gamma RIIB/CD32b Avi-tag Protein, CF R&D Systems #AVI1875-050; Recombinant Mouse Fc gamma RIIB/CD32b Protein, CF R&D Systems #1460-CD-050; His Tag Horseradish Peroxidase-conjugated Antibody, R&D Systems #MAB050H; Streptavidin-HRP, Sigma #RABHRP3-600 µL.
(In general: ELISA stands for enzyme-linked immunosorbent assay.)

Experiment [2] concerns the target T2, Recombinant Human Fc gamma RIIIA/CD16a Protein (human, UniProt P08637 17-208).
T2 construct: Bought recombinant protein; also called hu FcγRIII (CD16a); huFcgRIII
The experiment is described as above. The procedure:
as §1

Experiment [3] deals with T3, Recombinant Human Fc gamma RI/CD64 Protein (human, UniProt P12314 16-288).
T3 construct: Bought recombinant protein; also called hu FcγRI (CD64)
The description is as above. The procedure:
as §1

For experiment [4], the target named is T4, Recombinant Human Fc gamma RIIA/CD32a (H167) Protein (human, UniProt P12318 36-218).
T4 construct: Bought recombinant protein; H167 variant as printed; also called hu FcγRIIa (CD32a); human CD32a
T4 sequence (looked up): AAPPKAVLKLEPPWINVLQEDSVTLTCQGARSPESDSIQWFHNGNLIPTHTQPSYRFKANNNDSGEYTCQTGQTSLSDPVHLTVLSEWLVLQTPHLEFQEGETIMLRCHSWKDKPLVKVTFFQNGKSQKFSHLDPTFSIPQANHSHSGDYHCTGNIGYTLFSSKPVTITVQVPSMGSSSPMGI
The description is as above. The procedure:
as §1

Experiment [5] has as its target T5, Recombinant Human Fc gamma RIIB/CD32b Avi-tag Protein (human, UniProt P31994 46-217).
T5 construct: Bought recombinant protein with Avi-tag; also called hu FcγRIIb (CD32b); human CD32b
T5 sequence (looked up): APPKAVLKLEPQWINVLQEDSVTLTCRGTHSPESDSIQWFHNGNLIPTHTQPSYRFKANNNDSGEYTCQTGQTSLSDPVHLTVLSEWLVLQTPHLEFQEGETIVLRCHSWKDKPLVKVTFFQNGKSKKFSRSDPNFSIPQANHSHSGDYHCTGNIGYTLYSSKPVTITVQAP
The experiment is described as above. The procedure: as §1

For experiment [6], the target named is T6, Recombinant Mouse Fc gamma RIII/CD16 Protein (mouse, UniProt P08508 31-215).
T6 construct: Bought recombinant protein; also called mu FcγRIII (CD16); murine CD16
T6 sequence (looked up): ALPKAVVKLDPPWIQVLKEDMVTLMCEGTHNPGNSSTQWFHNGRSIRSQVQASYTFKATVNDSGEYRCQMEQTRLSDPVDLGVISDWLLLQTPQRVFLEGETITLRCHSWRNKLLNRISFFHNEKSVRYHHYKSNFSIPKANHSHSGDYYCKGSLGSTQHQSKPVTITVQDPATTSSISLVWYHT
Described as above. The procedure:
as §1

For experiment [7], the target named is T7, recombinant biotinylated CD20 (human) (human, UniProt P11836 1-297, limits assumed, biotinylated (site not stated)).
T7 construct: also called hu CD20; B-lymphocyte antigen CD20
T7 sequence: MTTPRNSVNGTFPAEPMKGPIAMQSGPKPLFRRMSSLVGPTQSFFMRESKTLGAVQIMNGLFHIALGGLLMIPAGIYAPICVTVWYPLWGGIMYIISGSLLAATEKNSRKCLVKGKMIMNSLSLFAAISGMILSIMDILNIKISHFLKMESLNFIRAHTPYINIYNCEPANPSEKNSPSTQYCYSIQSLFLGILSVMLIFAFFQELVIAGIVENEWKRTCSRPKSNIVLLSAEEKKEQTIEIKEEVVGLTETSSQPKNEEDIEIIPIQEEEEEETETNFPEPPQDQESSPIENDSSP
Briefly: ELISA, antibody coated on the plate, biotinylated CD20 titrated, streptavidin-HRP detection, OD 450 nm. The procedure: (§2) The interaction of the unmodified and of conjugated anti-CD20 antibodies with CD20 were measured by ELISA assay. […] Plates were washed four times with 100 μl of PBS-0.02% Tween20. and blocked with 25 μl of PBS-0.02% Tween20-1% BSA at 37° C. with shaking at 600 RPM, for 1 h. Plates were then washed four times with 100 μl of PBS-0.02% Tween20. 25 μl of recombinant biotinylated CD20 were added in seven-fold serial dilutions starting at 18 nM down to 10 pM into PBS-0.02% Tween20-0.1% BSA and incubated at 37° C. during 2 h. Plates were then washed four times with 100 μl of PBS-0.02% Tween20. 25 ul of Streptavidin-Horseradish peroxidase (#RABHRP3, Merck, Buchs, Switzerland) diluted at 1:500 into PBS-0.02% Tween20-0.1% BSA were added to each well and incubated at room temperature for 30 min. Plates were then washed four times with 100 μl of PBS-0.02% Tween20. Fifty microliters of TMB substrate reagent (#CL07, Merck, Buchs, Switzerland) were added to each well and incubated at 37° C. during 5min After 5 min at 37° C., Horseradish peroxidase reaction is stopped by adding 50 μl/well of 0.5M H₂SO₄ stop solution. ELISA signal is then measured at 450 nm on an ENSPIRE® plate reader from Perkin Elmer (Schwerzenbach, Switzerland).

Experiment [8] deals with T7, recombinant biotinylated CD20 (human). The experiment in a line: ELISA, antibody coated on plate, biotinylated recombinant CD20 titrated, streptavidin-HRP detection; mean EC50. The procedure: as §2

Usually EC50 stands for the concentration at which the effect is half-maximal. The EC50 (read off the curve) is the concentration needed to bring the measured effect to its halfway point.

T3 sequence (P12314 16-288 limits assumed): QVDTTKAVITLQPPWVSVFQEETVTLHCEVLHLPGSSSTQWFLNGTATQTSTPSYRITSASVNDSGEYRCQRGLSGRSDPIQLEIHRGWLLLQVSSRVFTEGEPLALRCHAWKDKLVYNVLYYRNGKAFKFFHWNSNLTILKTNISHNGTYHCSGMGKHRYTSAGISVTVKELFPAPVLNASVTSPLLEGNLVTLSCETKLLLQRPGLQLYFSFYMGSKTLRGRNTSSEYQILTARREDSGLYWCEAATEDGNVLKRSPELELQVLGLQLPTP
T2 sequence (P08637 17-208 limits assumed): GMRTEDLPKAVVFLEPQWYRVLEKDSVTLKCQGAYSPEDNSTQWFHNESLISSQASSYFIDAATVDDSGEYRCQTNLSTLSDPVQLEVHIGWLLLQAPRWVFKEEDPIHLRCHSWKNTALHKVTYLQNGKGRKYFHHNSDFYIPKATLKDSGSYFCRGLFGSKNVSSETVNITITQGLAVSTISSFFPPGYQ

B1: biosimilar Rituximab (unconjugated parent anti-CD20 antibody) (antibody, human IgG1, kappa)
heavy: not shown
light: QIVLSQSPAILSASPGEKVTMTCRASSSVSYIHWFQQKPGSSPKPWIYATSNLASGVPVRFSGSGSGTSYSLTISRVEAEDAATYYCQQWTSNPPTFGGGTKLEIKRTVAAPSVFIFPPSDEQLKSGTASVVCLLNNFYPREAKVQWKVDNALQSGNSQESVTEQDSKDSTYSLSSTLTLSKADYEKHKVYACEVTHQGLSSPVTKSFNRGEC
notes: The antibody tested is a biosimilar of rituximab; also called aCD20 AB; parent antibody
With B1, the EC50 in experiment [1] amounted to 35 nM; in experiment [2], 185 nM; in experiment [3] it was 0.23 nM; in experiment [4], 740 nM; in experiment [5] it was 880 nM; in experiment [6], 133 nM. In experiment [8], the EC50 is 0.08 nM. Besides, in experiment [7], the “EC50 (read off the curve)” value was roughly 0.04 nM.
